Data taken from publication PMC6140455.

How the values were obtained:
Assay in all cases: fluorescence anisotropy
[1] = biological target: T1, YTHDC2 YTH domain (Homo sapiens, UniProt Q9H6S0 1277-1430)
T1 sequence: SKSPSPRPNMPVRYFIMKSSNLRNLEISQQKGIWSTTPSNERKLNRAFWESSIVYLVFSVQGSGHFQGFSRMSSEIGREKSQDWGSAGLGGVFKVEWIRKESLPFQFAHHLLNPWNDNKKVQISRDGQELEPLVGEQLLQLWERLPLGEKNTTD

[2] = biological target: T2, YTHDC2 YTH domain W1310A (Homo sapiens, UniProt Q9H6S0 1277-1430, W1310A)
T2 sequence: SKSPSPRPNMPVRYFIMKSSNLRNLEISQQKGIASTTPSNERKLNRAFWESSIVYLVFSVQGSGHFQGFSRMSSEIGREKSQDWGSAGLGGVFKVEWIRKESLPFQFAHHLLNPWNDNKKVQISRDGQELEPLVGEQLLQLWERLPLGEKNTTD

[3] = biological target: T3, YTHDC2 YTH domain W1360A (Homo sapiens, UniProt Q9H6S0 1277-1430, W1360A)
T3 sequence: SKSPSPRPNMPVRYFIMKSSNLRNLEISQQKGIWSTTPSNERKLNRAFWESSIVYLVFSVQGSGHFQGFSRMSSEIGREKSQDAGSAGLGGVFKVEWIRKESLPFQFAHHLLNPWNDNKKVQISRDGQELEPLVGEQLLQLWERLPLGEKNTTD

In the case of CCGGACUGU (ssRNA, N6-methyladenosine at position 5) [GGm6ACU 9-nt RNA], the Kd [1] is reported as 3.2 ± 0.3 µM, the binding result [2] is reported as “no binding” and the binding result [3] is reported as “no binding”.
